Experimental findings from paper PMC10397247 are described below.

The target in assay [1] is T1, APC8516-AA.
T1 chain: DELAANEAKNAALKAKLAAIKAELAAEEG
Briefly: two-hybrid library CCmax.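 Further: natural log of median RNA to DNA barcode read ratio; higher means stronger binding.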

The target in assay [2] is T2, APC9182-AA.
T2 chain: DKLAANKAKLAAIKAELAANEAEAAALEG
Briefly: two-hybrid library CCmax.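 Further: natural log of median RNA to DNA barcode read ratio; higher means stronger binding.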 As to conditions: mean of both orientations.

Assay [3] concerns the target T3, APC2556-AA.
T3 chain: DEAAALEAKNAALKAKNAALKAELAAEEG
Briefly: two-hybrid library CCmax.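 Further: natural log of median RNA to DNA barcode read ratio; higher means stronger binding.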 The note with it: mean of both orientations.

Assay [4] addresses T4, APC2981-AA.
T4 chain: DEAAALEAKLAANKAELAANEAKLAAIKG
Kind of assay: two-hybrid library CCmax.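 Further: natural log of median RNA to DNA barcode read ratio; higher means stronger binding.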 As to conditions: mean of both orientations.

Assay [5] concerns the target T5, APC2724-AA.
T5 chain: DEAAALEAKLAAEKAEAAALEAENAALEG
Kind of assay: two-hybrid library CCmax. As to conditions: mean of both orientations.

For assay [6], the target named is T6, APC222-AA.
T6 chain: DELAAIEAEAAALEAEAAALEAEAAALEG
Briefly: two-hybrid library CCmax.

For assay [7], the target named is T7, APC2811-AA.
T7 chain: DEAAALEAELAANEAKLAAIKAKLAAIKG
Kind of assay: two-hybrid library CCmax. The note with it: mean of both orientations.

In assay [8] the target is T8, APC9291-AA.
T8 chain: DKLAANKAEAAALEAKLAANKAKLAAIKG
Kind of assay: two-hybrid library CCmax. As to conditions: mean of both orientations.

The target in assay [9] is T9, APC7524-AA.
T9 chain: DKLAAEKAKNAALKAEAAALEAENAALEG
Kind of assay: two-hybrid library CCmax. As to conditions: mean of both orientations.

The target in assay [10] is T10, APC9806-AA.
T10 chain: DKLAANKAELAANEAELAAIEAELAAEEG
Briefly: two-hybrid library CCmax. The note with it: mean of both orientations.

The target of assay [11] is T11, APC2375-AA.
T11 chain: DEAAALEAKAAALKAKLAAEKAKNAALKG
Kind of assay: two-hybrid library CCmax. As to conditions: mean of both orientations.

Assay [12] addresses T12, APC8401-AA.
T12 chain: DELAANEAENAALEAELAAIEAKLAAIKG
Kind of assay: two-hybrid library CCmax. The note with it: mean of both orientations.

The target in assay [13] is T13, APC2257-AA.
T13 chain: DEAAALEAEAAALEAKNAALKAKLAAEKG
Kind of assay: two-hybrid library CCmax. As to conditions: mean of both orientations.

Assay [14] has as its target T14, APC5531-AA.
T14 chain: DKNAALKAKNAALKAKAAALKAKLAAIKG
Briefly: two-hybrid library CCmax.

Assay [15] addresses T15, APC3354-AA.
T15 chain: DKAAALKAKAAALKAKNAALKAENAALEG
Kind of assay: two-hybrid library CCmax. The note with it: mean of both orientations.

Assay [16] deals with T16, APC6088-AA.
T16 chain: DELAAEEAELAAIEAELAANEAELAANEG
Kind of assay: two-hybrid library CCmax. As to conditions: mean of both orientations.

Assay [17] deals with T17, APC9141-AA.
T17 chain: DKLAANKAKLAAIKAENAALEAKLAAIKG
Kind of assay: two-hybrid library CCmax. As to conditions: mean of both orientations.

Assay [18] has as its target T18, APC4100-AA.
T18 chain: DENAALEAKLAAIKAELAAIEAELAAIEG
Kind of assay: two-hybrid library CCmax. The note with it: mean of both orientations.

Assay [19] concerns the target T19, APC5009-AA.
T19 chain: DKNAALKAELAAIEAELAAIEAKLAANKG
Briefly: two-hybrid library CCmax. The note with it: mean of both orientations.

Assay [20] concerns the target T20, APC2543-AA.
T20 chain: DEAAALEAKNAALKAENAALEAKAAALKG
Kind of assay: two-hybrid library CCmax. The note with it: mean of both orientations.

Assay [21] deals with T21, APC4336-AA.
T21 chain: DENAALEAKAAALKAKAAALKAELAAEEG
Briefly: two-hybrid library CCmax. As to conditions: mean of both orientations.

For assay [22], the target named is T22, APC3323-AA.
T22 chain: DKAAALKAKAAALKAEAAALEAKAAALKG
Briefly: two-hybrid library CCmax. As to conditions: mean of both orientations.

In assay [23] the target is T23, APC542-AA.
T23 chain: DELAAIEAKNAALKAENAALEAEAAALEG
Kind of assay: two-hybrid library CCmax.

For assay [24], the target named is T24, APC2474-AA.
T24 chain: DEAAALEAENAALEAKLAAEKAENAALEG
Briefly: two-hybrid library CCmax.

Assay [25] addresses T25, APC3881-AA.
T25 chain: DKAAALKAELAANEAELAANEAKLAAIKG
Kind of assay: two-hybrid library CCmax. The note with it: mean of both orientations.

Assay [26] has as its target T26, APC3265-AA.
T26 chain: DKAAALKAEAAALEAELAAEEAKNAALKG
Briefly: two-hybrid library CCmax. The note with it: mean of both orientations.

Assay [27] has as its target T27, P5bHq.
T27 chain: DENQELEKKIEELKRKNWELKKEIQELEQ
Kind of assay: two-hybrid library CCNG1.

In assay [28] the target is T28, P6bHq.
T28 chain: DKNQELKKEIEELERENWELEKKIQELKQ
Briefly: two-hybrid library CCNG1.

Assay [29] deals with T29, P2bHq.
T29 chain: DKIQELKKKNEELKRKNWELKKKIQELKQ
Briefly: two-hybrid library CCNG1.

The target in assay [30] is T30, P7bHq.
T30 chain: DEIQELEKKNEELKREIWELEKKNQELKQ
Briefly: two-hybrid library CCNG1.

Assay [31] deals with T31, P4bHq.
T31 chain: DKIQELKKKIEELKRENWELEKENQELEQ
Briefly: two-hybrid library CCNG1.

Assay [32] concerns the target T32, P8bHq.
T32 chain: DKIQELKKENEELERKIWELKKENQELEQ
Briefly: two-hybrid library CCNG1.

For assay [33], the target named is T33, P9bHq.
T33 chain: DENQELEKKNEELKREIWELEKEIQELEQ
Kind of assay: two-hybrid library CCNG1.

DELAAIEAEAAALEAEAAALEAEAAALEG [APC222-AA]: the interaction score is -1.79 in assay [1]; -1.69 in assay [2]; -2.32 in assay [3]; -1.93 in assay [4]; -2.15 in assay [5]; -2.62 in assay [6]. In addition, the interaction score in [7] was -1.59; in assay [8], -1.82; in assay [9] it was -2.39; in [10], -1.68; in assay [11] it was -1.53; in [12] it was -1.94. Further, the interaction score is -1.71 in [13]; -1.91 in assay [14]; -1.41 in [15]; -1.62 in assay [16]; -1.74 in [17]; -1.75 in assay [18]. Besides, the interaction score is -2.08 in assay [19]; -1.8 in assay [20]; -1.82 in assay [21]; -0.292 in assay [22]; -1.23 in assay [23]; -1.83 in [24]. Further, the interaction score was -1.61 in assay [25] and -1.62 in assay [26].

With DKIQELKKKNEELKRKNWELKKKIQELKQ [P2bHq], the interaction score in [27] came to 0.419; in assay [28], 1.33; in assay [29] it was 0.693; in [30], 0.668; in [31], 0.0617; in assay [32], 0.361. The same molecule showed an interaction score in [33] of -1.74.
